The target of data set [1] is T1, Grb14 SH2 domain (aa 426-540) (Homo sapiens, UniProt Q14449 Q14449:426-540).
T1 sequence: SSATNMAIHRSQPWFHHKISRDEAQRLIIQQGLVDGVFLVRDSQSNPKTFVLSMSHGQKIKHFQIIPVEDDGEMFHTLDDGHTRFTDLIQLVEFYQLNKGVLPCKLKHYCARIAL
The data set can be described thus: EMSA. Particulars: tags: GST; label: 32P. In general terms: Mobility shift assays separate free from complexed probe on a gel.

The next data set concerns the target Grb7 PH-SH2 fragment (Homo sapiens, UniProt Q14451 Q14451:229-532). As to the kind of experiment: EMSA. Conditions: tags: GST; label: 32P.

Grb7 PH-SH2 fragment, sequence (Q14451 229-532, one chain of several): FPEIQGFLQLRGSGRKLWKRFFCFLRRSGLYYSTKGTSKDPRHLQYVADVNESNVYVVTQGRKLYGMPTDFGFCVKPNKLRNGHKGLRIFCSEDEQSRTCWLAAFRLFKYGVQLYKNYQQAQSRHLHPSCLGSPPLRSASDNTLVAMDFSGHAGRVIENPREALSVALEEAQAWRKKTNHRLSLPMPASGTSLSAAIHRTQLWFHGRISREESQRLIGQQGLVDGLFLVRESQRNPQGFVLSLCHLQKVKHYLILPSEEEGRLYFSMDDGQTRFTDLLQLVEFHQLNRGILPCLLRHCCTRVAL

B1: erbB-2 3'-UTR U-rich probe (ssRNA)
RNA: UUUGUACAGAGUGCUUUUCUGUUUAGUUUUUACUUUUUUUGUUUUGUUUUUUUAAAGACGAAAUAAAGA
On to B1, for which the binding result (in data set [1]; with Grb7 PH-SH2 fragment) was “binds” in each case.
